Measurements as given in US20250270332A1 (ANTLERA THERAPEUTICS, published 2025).

B1: FZD4 Agonist ANT16 (bispecific antibody, human IgG1, kappa, N297G)
heavy 1: EVQLVESGGGLVQPGGSLRLSCAASGFDFTAYAMHWVRQAPGKGLEWVASIYPSGGYTAYADSVKGRFTISADTSKNTAYLQMNSLRAEDTAVYYCARRSYYFALDYWGQGTLVTVSSGGGGSDIQMTQSPSSLSASVGDRVTITCRASQSVSSAVAWYQQKPGKAPKLLIYSASSLYSGVPSRFSGSRSGTDFTLTISSLQPEDFATYYCQQYWAYYSPITFGQGTKVEIKGGGGSGGGGSEPKTSDKTHTCPPCPAPELLGGPSVFLFPPKPKDTLMISRTPEVTCVVVAVSHEDPEVKFNWYVDGVEVHNAKTKPREEQYGSTYRVVSVLTVLHQDWLNGKEYKCKVSNKALPAPIEKTISKAKGQPREPMVFDLPPSREEMTKNQVSLWCMVKGFYPSDIAVEWESNGQPENNYKTTPPVLDSDGSFFLYSKLTVDKSRWQQGNVFSCSVMHEALHNHYTQKSLSLSPGKGGGSGGGSGGGSGGGSGSTGEVQLVESGGGLVQPGGSLRLSCAASGFTLSSYSMHWVRQAPGKGLEWVAYISSYYGYTYYADSVKGRFTISADTSKNTAYLQMNSLRAEDTAVYYCARPAPGHWGFDYWGQGTLVTVSSASTKGPSVFPLAPSSKSTSGGTAALGCLVKDYFPEPVTVSWNSGALTSGVHTFPAVLQSSGLYSLSSVVTVPSSSLGTQTYICNVNHKPSNTKVDKKVEPKSCDKTHT
heavy 2: EVQLVESGGGLVQPGGSLRLSCAASGFDFSSSSIHWVRQAPGKGLEWVASISSSYGYTYYADSVKGRFTISADTSKNTAYLQMNSLRAEDTAVYYCARSWAMDYWGQGTLVTVSSGGGGSDIQMTQSPSSLSASVGDRVTITCRASQSVSSAVAWYQQKPGKAPKLLIYSASDLYSGVPSRFSGSRSGTDFTLTISSLQPEDFATYYCQQYAGAGLITFGQGTKVEIKGGGGSGGGGSEPKSSDKTHTCPPCPAPELLGGPSVFLFPPKPKDTLMISRTPEVTCVVVAVSHEDPEVKFNWYVDGVEVHNAKTKPREEQYGSTYRVVSVLTVLHQDWLNGKEYKCKVSNKALPAPIEKTISKAKGQPREPQVYTLPPIRELMTSNQVSLSCAVKGFYPSDIAVEWESNGQPENNYKTTPPVLDSDGSFFLVSKLTVDKSRWQQGNVFSCSVMHEALHNHYTQKSLSLSPGKGGGSGGGSGGGSGGGSGSTGEVQLVESGGGLVQPGGSLRLSCAASGFTLSSYSMHWVRQAPGKGLEWVAYISSYYGYTYYADSVKGRFTISADTSKNTAYLQMNSLRAEDTAVYYCARPAPGHWGFDYWGQGTLVTVSSASTKGPSVFPLAPSSKSTSGGTAALGCLVKDYFPEPVTVSWNSGALTSGVHTFPAVLQSSGLYSLSSVVTVPSSSLGTQTYICNVNHKPSNTKVDKKVEPKSCDKTHT
light: DIQMTQSPSSLSASVGDRVTITCRASQSVSSAVAWYQQKPGKAPKLLIYSASSLYSGVPSRFSGSRSGTDFTLTISSLQPEDFATYYCQQWYYAPITFGQGTKVEIKRTVAAPSVFIFPPSDEQLKSGTASVVCLLNNFYPREAKVQWKVDNALQSGNSQESVTEQDSKDSTYSLSSTLTLSKADYEKHKVYACEVTHQGLSSPVTKSFNRGEC
notes: Diabody-Fc-Fab format: bispecific LRP5 diabody at the N-terminus, two FZD4 Fabs at the C-terminus
B2: FZD4 Agonist ANT18 (bispecific antibody)
heavy 1: EVQLVESGGGMVQPGGSLRLSCAASGFNFSSSSIHWVRQAPGKGLEWVASISSSYGYTYYADSVKGRFTISADTSKNTAYLQMNSLRAEDTAVYYCARGGSGVSHYGSVYYSWWALDYWGQGTLVTVSSGGGGSDIQMTQSPSSLSASVGDRVTITCRASQSVSSAVAWYQQKPGKAPKLLIYSASSLYSGVPSRFSGSRSGTDFTLTISSLQPEDFATYYCQQASYAPITFGQGTKVEIKGGGGSGGGGSEPKTSDKTHTCPPCPAPELLGGPSVFLFPPKPKDTLMISRTPEVTCVVVAVSHEDPEVKFNWYVDGVEVHNAKTKPREEQYGSTYRVVSVLTVLHQDWLNGKEYKCKVSNKALPAPIEKTISKAKGQPREPMVFDLPPSREEMTKNQVSLWCMVKGFYPSDIAVEWESNGQPENNYKTTPPVLDSDGSFFLYSKLTVDKSRWQQGNVFSCSVMHEALHNHYTQKSLSLSPGKGGGSGGGSGGGSGGGSGSTGEVQLVESGGGLVQPGGSLRLSCAASGFTLSSYSMHWVRQAPGKGLEWVAYISSYYGYTYYADSVKGRFTISADTSKNTAYLQMNSLRAEDTAVYYCARPAPGHWGFDYWGQGTLVTVSSASTKGPSVFPLAPSSKSTSGGTAALGCLVKDYFPEPVTVSWNSGALTSGVHTFPAVLQSSGLYSLSSVVTVPSSSLGTQTYICNVNHKPSNTKVDKKVEPKSCDKTHT
heavy 2: EVQLVESGGGLVQPGGSLRLSCAASGFNLSYYYMHWVRQAPGKGLEWVASIYSSYGYTYYADSVKGRFTISADTSKNTAYLQMNSLRAEDTAVYYCARWSHVSGHYSGMDYWGQGTLVTVSSGGGGSDIQMTQSPSSLSASVGDRVTITCRASQSVSSAVAWYQQKPGKAPKLLIYSASSLYSGVPSRFSGSRSGTDFTLTISSLQPEDFATYYCQQSSYSLITFGQGTKVEIKGGGGSGGGGSEPKSSDKTHTCPPCPAPELLGGPSVFLFPPKPKDTLMISRTPEVTCVVVAVSHEDPEVKFNWYVDGVEVHNAKTKPREEQYGSTYRVVSVLTVLHQDWLNGKEYKCKVSNKALPAPIEKTISKAKGQPREPQVYTLPPIRELMTSNQVSLSCAVKGFYPSDIAVEWESNGQPENNYKTTPPVLDSDGSFFLVSKLTVDKSRWQQGNVFSCSVMHEALHNHYTQKSLSLSPGKGGGSGGGSGGGSGGGSGSTGEVQLVESGGGLVQPGGSLRLSCAASGFTLSSYSMHWVRQAPGKGLEWVAYISSYYGYTYYADSVKGRFTISADTSKNTAYLQMNSLRAEDTAVYYCARPAPGHWGFDYWGQGTLVTVSSASTKGPSVFPLAPSSKSTSGGTAALGCLVKDYFPEPVTVSWNSGALTSGVHTFPAVLQSSGLYSLSSVVTVPSSSLGTQTYICNVNHKPSNTKVDKKVEPKSCDKTHT
light: DIQMTQSPSSLSASVGDRVTITCRASQSVSSAVAWYQQKPGKAPKLLIYSASSLYSGVPSRFSGSRSGTDFTLTISSLQPEDFATYYCQQWYYAPITFGQGTKVEIKRTVAAPSVFIFPPSDEQLKSGTASVVCLLNNFYPREAKVQWKVDNALQSGNSQESVTEQDSKDSTYSLSSTLTLSKADYEKHKVYACEVTHQGLSSPVTKSFNRGEC
notes: Diabody-Fc-Fab format
B3: diabody-Fc-diabody FZD4 CM0199 (bispecific antibody)
chain 1: EFEVQLVESGGGLVQPGGSLRLSCAASGFNSSFYFMHWVRQAPGKGLEWVATVYPYLDYTYYADSVKGRFTISADTSKNTAYLQMNSLRAEDTAVYYCARAFPGSYHPMDYWGQGTLVTVSSGGGGSDIQMTQSPSSLSASVGDRVTITCRASQSVSSAVAWYQQKPGKAPKLLIYSASSLYSGVPSRFSGSRSGTDFTLTISSLQPEDFATYYCQQSSYSLITFGQGTKVEIKLEDKTHTKVEPKTSDKTHTCPPCPAPELLGGPSVFLFPPKPKDTLMISRTPEVTCVVVDVSHEDPEVKFNWYVDGVEVHNAKTKPREEQYNSTYRVVSVLTVLHQDWLNGKEYKCKVSNKALPAPIEKTISKAKGQPREPMVFDLPPSREEMTKNQVSLWCMVKGFYPSDIAVEWESNGQPENNYKTTPPVLDSDGSFFLYSKLTVDKSRWQQGNVFSCSVMHEALHNHYTQKSLSLSPGKSGSETPGTSESATPESGGGEVQLVESGGGLVQPGGSLRLSCAASGFNFSSSSIHWVRQAPGKGLEWVASISSSYGYTYYADSVKGRFTISADTSKNTAYLQMNSLRAEDTAVYYCARGGSGVSHYGSVYYSWWALDYWGQGTLVTVSSGGGGSDIQMTQSPSSLSASVGDRVTITCRASQSVSSAVAWYQQKPGKAPKLLIYSASSLYSGVPSRFSGSRSGTDFTLTISSLQPEDFATYYCQQASYAPITFGQGTKVEIK
chain 2: EFEVQLVESGGGLVQPGGSLRLSCAASGFNSSFYFMHWVRQAPGKGLEWVATVYPYLDYTYYADSVKGRFTISADTSKNTAYLQMNSLRAEDTAVYYCARAFPGSYHPMDYWGQGTLVTVSSGGGGSDIQMTQSPSSLSASVGDRVTITCRASQSVSSAVAWYQQKPGKAPKLLIYSASSLYSGVPSRFSGSRSGTDFTLTISSLQPEDFATYYCQQSSYSLITFGQGTKVEIKLEDKTHTKVEPKSSDKTHNCPPCPAPELLGGPSVFLFPPKPKDTLMISRTPEVTCVVVDVSHEDPEVKFNWYVDGVEVHNAKTKPREEQYNSTYRVVSVLTVLHQDWLNGKEYKCKVSNKALPAPIEKTISKAKGQPREPQVYTLPPIRELMTSNQVSLSCAVKGFYPSDIAVEWESNGQPENNYKTTPPVLDSDGSFFLVSKLTVDKSRWQQGNVFSCSVMHEALHNHYTQKSLSLSPGKSGSETPGTSESATPESGGGEVQLVESGGGLVQPGGSLRLSCAASGFNLSYYYMHWVRQAPGKGLEWVASIYSSYGYTYYADSVKGRFTISADTSKNTAYLQMNSLRAEDTAVYYCARWSHVSGHYSGMDYWGQGTLVTVSSGGGGSDIQMTQSPSSLSASVGDRVTITCRASQSVSSAVAWYQQKPGKAPKLLIYSASSLYSGVPSRFSGSRSGTDFTLTISSLQPEDFATYYCQQSSYSLITFGQGTKVEIK
notes: Diabody-Fc-diabody format FZD agonist that recognizes FZD4 and LRP5; also called F4L5.13

Target: T1, FZD4 recombinant extracellular domain, Fc fusion (FZD-Fc) (UniProt Q9ULV1 37-180)
T1 construct: extracellular domain; also called FZD4 ECD; not shown: Fc part of the FZD-Fc protein
T1 sequence (looked up): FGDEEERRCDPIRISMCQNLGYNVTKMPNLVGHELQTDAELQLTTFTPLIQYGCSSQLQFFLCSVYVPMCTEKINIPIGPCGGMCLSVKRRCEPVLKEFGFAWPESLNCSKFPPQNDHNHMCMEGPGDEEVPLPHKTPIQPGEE
Experiment: BLI (Octet), FZD-Fc captured on AHQ sensors, agonist in solution; apparent affinity

Binder	Kd [pM]
B1	600
B2	2600
B3	700
